Source: US20260193377A1 (FULL LIFE TECHNOLOGIES HK, published 2026)

B1: anti-GCC single domain antibody SEQ ID NO. 9 (VHH)
VHH: QKQLVESGGGLVQPGGSLRLSCAASGETLSNYNIGWFRQAPGKEREGVSCISQIGFTNYADSVKGRFTLFRASAENTVYLQMNSLKPEDTAVYYCAVTGGRWASCSFLPLRQDFESWGQGTLVTVSS
notes: Alpaca-derived sdAb
B2: anti-GCC single domain antibody SEQ ID NO. 7 (VHH)
VHH: QVQLVESGGGLVQPGGSLRLSCAASGSRFMTSSMGWYRQTPGKQREWVATATSSDSTLYADAVKGRFTISRDNAKNTVYLQMNSLKPQDTAVYYCFTTPPTFWGHGTQVTVSS
notes: Alpaca-derived sdAb
B3: anti-GCC single domain antibody SEQ ID NO. 8 (VHH)
VHH: EVDLVESGGGLVQPGGSLRLSCGASGFTFSHYAMSWVRQAPGKALEWVSDISSGGGITKYADSVKGRFTISRDDAQNTLYLQMNSLKPEDTAVYYCAKASAIGYLAYWMRNPVEYDTRGQGTLVTVSS
notes: Alpaca-derived sdAb

Each binder was assayed against T1, Human GUCY2C (captured on anti-human Fc capturing antibody, SPR) (human) (assay: SPR (Biacore T200), human GUCY2C captured via anti-human Fc, sdAb as analyte, 1:1 fit).
T1 construct: also called human GCC; guanylyl cyclase C
T1 sequence (P25092 24-430): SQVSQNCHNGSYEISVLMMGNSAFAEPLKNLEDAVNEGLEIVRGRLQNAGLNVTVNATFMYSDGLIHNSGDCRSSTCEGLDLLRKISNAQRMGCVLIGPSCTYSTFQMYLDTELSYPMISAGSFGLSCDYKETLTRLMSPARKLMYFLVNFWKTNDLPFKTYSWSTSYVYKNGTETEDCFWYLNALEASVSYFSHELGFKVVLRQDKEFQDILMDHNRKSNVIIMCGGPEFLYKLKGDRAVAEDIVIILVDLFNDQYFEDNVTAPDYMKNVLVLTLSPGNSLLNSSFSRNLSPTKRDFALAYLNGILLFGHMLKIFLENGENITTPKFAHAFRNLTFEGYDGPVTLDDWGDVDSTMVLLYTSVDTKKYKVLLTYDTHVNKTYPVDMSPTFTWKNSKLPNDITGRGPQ
Experimental: Anti-GCC sdAbs were diluted with 1×HBS-EP buffer. Human GUCY2C was captured on anti-human Fc capturing Ab-immobilized sCM5 chip. Then anti-GCC sdAb samples were injected with a flow rate of 10 μl/min for 180 sec, followed by dissociation for 800 sec. The binding curves were locally fitted with Biacore® T200 analysis software (BIAevaluation) using a 1:1 Langmuir binding model.
In the case of B1, the Kd is reported as 0.116 nM, the koff is reported as 0.00103 s⁻¹ and the kon is reported as 8.84e+06 M⁻¹ s⁻¹.
In the case of B2, the Kd is reported as 2.53 nM, the koff is reported as 0.000395 s⁻¹ and the kon is reported as 156000 M⁻¹ s⁻¹.
B3 showed a Kd of 0.0259 nM, a koff of 6.7e-05 s⁻¹ and a kon of 2.59e+06 M⁻¹ s⁻¹.

What follows are binders tested against T2, GCC expressed on T84 cells (UniProt P25092 24-1073, limits assumed) (assay: flow cytometry on T84 cells expressing GCC, 300 nm [sic], PE-anti human Fc secondary; Blank 30.7).
T2 construct: whole, on cells; also called guanylyl cyclase C; GUCY2C
T2 sequence (P25092 24-1073 limits assumed): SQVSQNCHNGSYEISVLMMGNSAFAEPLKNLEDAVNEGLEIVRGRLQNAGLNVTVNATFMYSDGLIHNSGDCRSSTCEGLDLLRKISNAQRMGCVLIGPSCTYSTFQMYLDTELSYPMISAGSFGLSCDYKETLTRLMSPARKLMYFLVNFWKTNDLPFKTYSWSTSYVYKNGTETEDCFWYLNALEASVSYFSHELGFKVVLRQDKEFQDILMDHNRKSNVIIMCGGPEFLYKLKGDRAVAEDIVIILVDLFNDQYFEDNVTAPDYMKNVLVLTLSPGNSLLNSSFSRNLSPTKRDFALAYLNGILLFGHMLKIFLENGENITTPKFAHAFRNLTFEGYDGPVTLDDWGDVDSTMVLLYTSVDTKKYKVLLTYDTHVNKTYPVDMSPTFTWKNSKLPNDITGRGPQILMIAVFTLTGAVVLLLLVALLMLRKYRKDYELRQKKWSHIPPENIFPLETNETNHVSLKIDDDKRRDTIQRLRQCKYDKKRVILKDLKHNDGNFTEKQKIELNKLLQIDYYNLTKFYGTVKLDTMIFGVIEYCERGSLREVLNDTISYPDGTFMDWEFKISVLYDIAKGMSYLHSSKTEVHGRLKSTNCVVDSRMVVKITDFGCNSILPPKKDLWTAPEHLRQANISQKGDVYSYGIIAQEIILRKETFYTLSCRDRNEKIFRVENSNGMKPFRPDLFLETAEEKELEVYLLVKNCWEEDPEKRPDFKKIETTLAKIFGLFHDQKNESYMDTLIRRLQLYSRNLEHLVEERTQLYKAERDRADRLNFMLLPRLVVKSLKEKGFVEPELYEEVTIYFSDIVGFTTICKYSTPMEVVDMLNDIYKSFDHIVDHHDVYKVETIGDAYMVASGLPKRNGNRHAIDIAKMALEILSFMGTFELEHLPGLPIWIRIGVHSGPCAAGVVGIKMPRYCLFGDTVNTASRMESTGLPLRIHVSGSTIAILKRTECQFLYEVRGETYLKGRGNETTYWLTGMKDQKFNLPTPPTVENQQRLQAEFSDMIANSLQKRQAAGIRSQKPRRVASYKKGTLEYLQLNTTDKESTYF
Experimental: T84 cells expressing GCC were used to evaluate the binding affinity of the anti-GCC sdAbs. Briefly, 50 μL T84 cells at density of 3×10⁶ cells/mL were incubated with 50 μL anti-GCC sdAbs at 4° C. for 2 hours. After incubation, the cells were washed three times with 400 μL FACS buffer, resuspended with PE-anti human Fc 2nd antibody (eBioscience 12-4998-82, 1:1000 dilution) and incubated at 4° C. for 60 min. Then the cells were collected and subject to FACS analysis.
For B1, the “Geometric mean MFI” value was 447.
With B2 the “Geometric mean MFI” value was 268.
With B3 the “Geometric mean MFI” value was 669.
